Measurements published in patent publication US20200339678A1 (RIGEL PHARMACEUTICALS, published 2020).

T1: His-tagged recombinant Mouse TIGIT (mouse, UniProt P86176 29-148, limits assumed)
T1 construct: not shown: His tag
T1 sequence (looked up): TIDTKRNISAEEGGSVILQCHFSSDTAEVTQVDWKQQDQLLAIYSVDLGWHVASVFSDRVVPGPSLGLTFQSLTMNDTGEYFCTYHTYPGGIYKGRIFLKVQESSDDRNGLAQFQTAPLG

T2: His-tagged recombinant Human TIGIT (human, UniProt Q495A1 22-141)
T2 construct: also called VSIG9; VSTM3; not shown: His tag
T2 sequence (looked up): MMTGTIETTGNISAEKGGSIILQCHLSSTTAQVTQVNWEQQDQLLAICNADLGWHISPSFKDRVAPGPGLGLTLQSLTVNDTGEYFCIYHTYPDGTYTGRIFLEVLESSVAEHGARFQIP


Experiments:
[1] = target: T1, His-tagged recombinant Mouse TIGIT; experiment: ELISA, coated His-tagged mouse TIGIT
Protocol: (§1) Binding affinities for antigen binding to anti-TIGIT monoclonal antibodies were determined by ELISA. […] Antibodies to be tested were diluted to 1 μM in PBS buffer containing 1% BSA and diluted 3-fold in a 10-point curve. […] Detection of the secondary antibody was determined using streptavidin-HRP and TMB reagent. All assays were performed at room temperature. Curve-fitting software was used to determine the EC₅₀ for each antibody.

[2] = target: T2, His-tagged recombinant Human TIGIT; experiment: ELISA, coated His-tagged human TIGIT
Protocol: as §1

Row | Binder | EC50 [1] | EC50 [2]
1 | Ab150 (Fab, V domains shown, ARE set) VH: not shown VL: DIQMTQSPSSLSASVGDRVTITCRASQSISSYVAWYQQKPGKAPKLLIYVNTSRASGVPSRFSGSGSGTDFTLTISSLQPEDFATYYCQQWYEFNLTFGGGTKVEIK | 0.7 nM | 
2 | Ab158 (Fab, V domains shown, ARE set) VH: EVQLLESGGGLVQPGGSLRLSCAASGFTFSSYSMSWVRQAPGKGLEWVAAIKGSAGTSGYADSVKGRFTISRDNSKNTLYLQMNSLRAEDTAVYYCAREPYGYWLDYWGQGTLVTVSS VL: DIQMTQSPSSLSASVGDRVTITCRASQSISSYVAWYQQKPGKAPKLLIYGNTSLQSGVPSRFSGSGSGTDFTLTISSLQPEDFATYYCQQGDENPLTFGGGTKVEIK | 156 nM | 
3 | Ab2 (Fab, V domains shown, ARG set) VH: EVQLLESGGGLVQPGGSLRLSCAASGFTFSSYGMNWVRQAPGKGLEWVAGINYSSGNKYYADSVKGRFTISRDNSKNTLYLQMNSLRAEDTAVYYCARGPYASTWLDYWGQGTLVTVSS VL: not shown |  | 15.7 nM
4 | Ab4 (Fab, V domains shown, ARG set) VH: EVQLLESGGGLVQPGGSLRLSCAASGFTFDSYGMNWVRQAPGKGLEWVASIKYSSGYKYYADSVKGRFTISRDNSKNTLYLQMNSLRAEDTAVYYCARGPYDVWMDYWGQGTLVTVSS VL: not shown |  | 1.2 nM
5 | Ab38 (Fab, V domains shown, ARV set) VH: EVQLLESGGGLVQPGGSLRLSCAASGFTFSSYTMSWVRQAPGKGLEWVAGIWSDSGNKGYADSVKGRFTISRDNSKNTLYLQMNSLRAEDTAVYYCARVPYSVWIDYWGQGTLVTVSS VL: not shown |  | 45.5 nM
6 | Ab193 (Fab, V domains shown, ARE set) VH: EVQLLESGGGLVQPGGSLRLSCAASGFTFSSYAMSWVRQAPGKGLEWVSAIKSDTSTIYYADSVKGRFTISRDNSKNTLYLQMNSLRAEDTAVYYCAREPYSTWLDYWGQGTLVTVSS VL: not shown |  | 4.6 nM
7 | Ab6 (Fab, V domains shown, ARE set) VH: EVQLLESGGGLVQPGGSLRLSCAASGFTFSDYSMSWVRQAPGKGLEWVARISSSSSYKSYADSVKGRFTISRDNSKNTLYLQMNSLRAEDTAVYYCAREPYSVWLDYWGQGTLVTVSS VL: not shown |  | 25.4 nM
8 | Ab60 (Fab, V domains shown, ARV set) VH: EVQLLESGGGLVQPGGSLRLSCAASGFTFSSYSMHWVRQAPGKGLEWVSSISSSAGYTSYADSVKGRFTISRDNSKNTLYLQMNSLRAEDTAVYYCARVPYDVWLDYWGQGTLVTVSS VL: not shown |  | 79.8 nM
9 | Ab53 (Fab, V domains shown, ARG set; also called clone Ab53) VH: EVQLLESGGGLVQPGGSLRLSCAASGFTFSSYSMHWVRQAPGKGLEWVASIKSSSSNKYYADSVKGRFTISRDNSKNTLYLQMNSLRAEDTAVYYCARGPYDVWLDYWGQGTLVTVSS VL: not shown |  | 4.3 nM
10 | Ab40 (Fab, V domains shown, ARG set; also called clone Ab40) VH: EVQLLESGGGLVQPGGSLRLSCAASGFTFSSYGMNWVRQAPGKGLEWVAGIKYSSGNKYYADSVKGRFTISRDNSKNTLYLQMNSLRAEDTAVYYCARGPYDVWMDYWGQGTLVTVSS VL: not shown |  | 0.3 nM
11 | Ab97 (Fab, V domains shown, ARV set) VH: EVQLLESGGGLVQPGGSLRLSCAASGFTFSSYSMHWVRQAPGKGLEWVAAISSNTGSIGYADSVKGRFTISRDNSKNTLYLQMNSLRAEDTAVYYCARVPYDVWIDYWGQGTLVTVSS VL: not shown |  | 289 nM
12 | Ab68 (Fab, V domains shown, ARV set) VH: EVQLLESGGGLVQPGGSLRLSCAASGFTFSSYSMHWVRQAPGKGLEWVAAIKGNTGSTYYADSVKGRFTISRDNSKNTLYLQMNSLRAEDTAVYYCARVPYGVWMDYWGQGTLVTVSS VL: not shown |  | 639 nM
13 | Ab12 (Fab, V domains shown, ARE set) VH: EVQLLESGGGLVQPGGSLRLSCAASGFTFSSYAMSWVRQAPGKGLEWVASINSNGGYKSYADSVKGRFTISRDNSKNTLYLQMNSLRAEDTAVYYCAREPYGTWLDYWGQGTLVTVSS VL: not shown |  | 27.7 nM
14 | Ab78 (Fab, V domains shown, ARV set) VH: EVQLLESGGGLVQPGGSLRLSCAASGFTFSSYSMHWVRQAPGKGLEWVASISGSTSSSSYADSVKGRFTISRDNSKNTLYLQMNSLRAEDTAVYYCARVPYDVWMDYWGQGTLVTVSS VL: not shown |  | 119 nM
15 | Ab156 (Fab, V domains shown, ARV set) VH: EVQLLESGGGLVQPGGSLRLSCAASGFTFSSYAMSWVRQAPGKGLEWVSYISGNAGYISYADSVKGRFTISRDNSKNTLYLQMNSLRAEDTAVYYCARVPYGVWMDYWGQGTLVTVSS VL: DIQMTQSPSSLSASVGDRVTITCRASQSISSYAAWYQQKPGKAPKLLIYGNTSRQSGVPSRFSGSGSGTDFTLTISSLQPEDFATYYCQQYSNSPLTFGGGTKVEIK | 164 nM | 
16 | Ab138 (Fab, V domains shown, ARE set) VH: EVQLLESGGGLVQPGGSLRLSCAASGFTFSSYAMSWVRQAPGKGLEWVASIKSSTGTTGYADSVKGRFTISRDNSKNTLYLQMNSLRAEDTAVYYCAREPYSVWIDYWGQGTLVTVSS VL: not shown | 58.6 nM | 

Row | Binder | EC50 [1] | EC50 [2]
17 | Ab140 (Fab, V domains shown, ARE set) VH: EVQLLESGGGLVQPGGSLRLSCAASGFTFSSYAMSWVRQAPGKGLEWVASINSNTGSIGYADSVKGRFTISRDNSKNTLYLQMNSLRAEDTAVYYCAREPYSYWLDYWGQGTLVTVSS VL: not shown | 173 nM | 
18 | Ab186 (Fab, V domains shown, ARV set) VH: EVQLLESGGGLVQPGGSLRLSCAASGFTFSSYSMHWVRQAPGKGLEWVASISSNAGYSSYADSVKGRFTISRDNSKNTLYLQMNSLRAEDTAVYYCARVPYDVWIDYWGQGTLVTVSS VL: not shown | 429 nM | 
19 | Ab199 (Fab, V domains shown, ARV set) VH: EVQLLESGGGLVQPGGSLRLSCAASGFTFSSYSMHWVRQAPGKGLEWVASISSSASTSGYADSVKGRFTISRDNSKNTLYLQMNSLRAEDTAVYYCARVPYGVWIDYWGQGTLVTVSS VL: not shown | 81 nM | 
20 | Ab152 (Fab, V domains shown, ARV set) VH: EVQLLESGGGLVQPGGSLRLSCAASGFTFSSYSMHWVRQAPGKGLEWVTSISSNAGYISYADSVKGRFTISRDNSKNTLYLQMNSLRAEDTAVYYCARVPYDVWMDYWGQGTLVTVSS VL: not shown |  | 27.1 nM
21 | Ab188 (Fab, V domains shown, ARV set) VH: EVQLLESGGGLVQPGGSLRLSCAASGFTFSSYSMHWVRQAPGKGLEWVASIKSNAGTSSYADSVKGRFTISRDNSKNTLYLQMNSLRAEDTAVYYCARVPYDVWIDYWGQGTLVTVSS VL: not shown | 40.3 nM | 
22 | Ab173 (Fab, V domains shown, ARV set) VH: EVQLLESGGGLVQPGGSLRLSCAASGFTFSSYAMSWVRQAPGKGLEWVSSISSNTGTISYADSVKGRFTISRDNSKNTLYLQMNSLRAEDTAVYYCARVPYGYWMDYWGQGTLVTVSS VL: not shown | 64.9 nM | 
23 | Ab187 (Fab, V domains shown, ARE set) VH: EVQLLESGGGLVQPGGSLRLSCAASGFTFSSYSMSWVRQAPGKGLEWVASIKSDASTTGYADSVKGRFTISRDNSKNTLYLQMNSLRAEDTAVYYCAREPYSVWLDYWGQGTLVTVSS VL: not shown |  | 6.2 nM
24 | Ab194 (Fab, V domains shown, ARE set) VH: EVQLLESGGGLVQPGGSLRLSCAASGFTFSSYSMSWVRQAPGKGLEWVSAINGNAGSIGYADSVKGRFTISRDNSKNTLYLQMNSLRAEDTAVYYCAREPYGVWMDYWGQGTLVTVSS VL: not shown | 70.6 nM | 
25 | Ab170 (Fab, V domains shown, ARV set) VH: EVQLLESGGGLVQPGGSLRLSCAASGFTFNSYAMHWVRQAPGKGLEWVAYISGNAGSIYYADSVKGRFTISRDNSKNTLYLQMNSLRAEDTAVYYCARVPYSVWLDYWGQGTLVTVSS VL: not shown |  | 138 nM
26 | Ab168 (Fab, V domains shown, ARE set) VH: EVQLLESGGGLVQPGGSLRLSCAASGFTFSSYAMSWVRQAPGKGLEWVSSIKSDTSSTYYADSVKGRFTISRDNSKNTLYLQMNSLRAEDTAVYYCAREPYSYWLDYWGQGTLVTVSS VL: not shown | 253 nM | 
27 | Ab162 (Fab, V domains shown, ARE set) VH: EVQLLESGGGLVQPGGSLRLSCAASGFTFSSYAMSWVRQAPGKGLEWVAAIKSSASTIYYADSVKGRFTISRDNSKNTLYLQMNSLRAEDTAVYYCAREPYSVWMDYWGQGTLVTVSS VL: not shown | 20.4 nM | 
28 | Ab93 (Fab, V domains shown, ARV set) VH: EVQLLESGGGLVQPGGSLRLSCAASGFTFSSYAMSWVRQAPGKGLEWVASISSSTGTISYADSVKGRFTISRDNSKNTLYLQMNSLRAEDTAVYYCARVPYSVWMDYWGQGTLVTVSS VL: not shown |  | 122 nM
29 | Ab154 (Fab, V domains shown, ARV set) VH: EVQLLESGGGLVQPGGSLRLSCAASGFTFSSYSMHWVRQAPGKGLEWVASIKSNTGTTGYADSVKGRFTISRDNSKNTLYLQMNSLRAEDTAVYYCARVPYGYWMDYWGQGTLVTVSS VL: not shown | 122 nM | 
30 | Ab146 (Fab, V domains shown, ARV set) VH: EVQLLESGGGLVQPGGSLRLSCAASGFTFSSYAMHWVRQAPGKGLEWVASISGNAGSSSYADSVKGRFTISRDNSKNTLYLQMNSLRAEDTAVYYCARVPYGVWIDYWGQGTLVTVSS VL: not shown | 7.8 nM | 
31 | Ab183 (Fab, V domains shown, ARE set) VH: EVQLLESGGGLVQPGGSLRLSCAASGFTFSSYAMSWVRQAPGKGLEWVSYINSNTGSIGYADSVKGRFTISRDNSKNTLYLQMNSLRAEDTAVYYCAREPYGVWMDYWGQGTLVTVSS VL: not shown | 110 nM | 
